Measurements taken from article PMC6423188, “HYNIC and DOMA conjugated radiolabeled bombesin analogs as receptor-targeted probes for scintigraphic detection of breast tumor” (EJNMMI Research, 2019).

Tests used:
[1] = system: MDA-MB-231 tumor-bearing mice; assay: In vivo biodistribution; set-up: species or system mouse; conditions: mean ± SD, n = 3; for Tumor uptake: MDA-MB-231 tumor
Protocol: All animal experiments were done according to the CSIR-IICB Animal Ethics Committee’s rules and regulation. Forty-eight hours before tumor cell implantation, an immunosuppressive drug (cyclosporine-A) was given intraperitoneal (i.p) at a concentration of 30 mg/kg/day. After that, MDA-MB-231 cells (5 × 10^6) 0.2 mL were implanted subcutaneously into the left flanks of the hind leg of BALB/c mice. Thereafter, the same dose of cyclosporine was given i.p. daily up to 2 weeks. Two weeks after inoculation of the tumor cells, when tumors reached ~ 0.5 cm in mean diameter, the tumor-bearing mice were used for biodistribution and imaging studies. Animals were monitored daily and their weights were recorded. Control group of mice received only 0.9 wt% saline. After cell implantation, the growth rate of the breast tumor followed a satisfactory pattern of spheroid shape and tumors are palpable within 2 to 4 weeks. MDA-MB-231 cell implanted mice tumor models were used for biodistribution and planar imaging studies of these radiolabeled new bombesin analogs.
In tissue biodistribution studies, tumor-bearing animals were divided into four groups and well hydrated for 1 h by intraperitoneal administration of saline (0.9%, 2 mL). Three animals per groups were used for biodistribution studies. After that, the radiolabeled new bombesin analogs (^99mTc-BN) were injected intravenously in each animal of each group consequently through the tail vein [24–27]. After 5, 30, 60, and 120 min intravenous administrations of radiolabeled analogs, the animals were sacrificed; blood, heart, lung, liver, kidney, stomach, intestine, spleen, pancreas, brain, muscle, and tumor were excised, weighed, and counted for radioactivity. The organ uptake was calculated as a percentage of the injected activity per gram of wet tissue (%IA/g). In order to evaluate whether binding of bombesin analogs to MDA-MB-231 cells in vivo is specific; blocking studies with ^99mTc-labeled bombesin analogs in tumor-bearing mice were carried out. Groups of three animals were injected 0.03 nmol of ^99mTc-labeled BN analogs (2 MBq) with 25 nmol of non-radiolabeled BN peptide. After 60 min and 120 min, mice were sacrificed and the organs were collected. Each organ was weighed and counted in a gamma counter along with activity standard and percentage of injected activity per gram (%IA/g) of tissue was calculated for each type of tissues. Counts were corrected for background radiation and physical decay of the radioactivity. The uptake was expressed in the percentage of injected activity per gram of each organ (%IA/g). Data were analyzed statistically by the t test, with the level of significance set at P < 0.05.

[2] = physchem; format: physicochemical; conditions: pH 7.4
Protocol: Lipophilicity of the HPLC-purified radiopeptide analogs was determined through octanol/water partition coefficients, determined at pH 7.4 by measuring the distribution of the HPLC purified radiolabeled peptides in 1-octanol and PBS. Then, 50 μL HPLC purified ^99mTc-BN1/^99mTc-BN2/^99mTc-BN3/^99mTc-BN4/^99mTc-BNS with 100 μCi of radiolabeled compound in PBS was added to a to a centrifuge tube containing 1 mL n-octanol and 1 mL PBS (0.025 M, pH 7.4). The tube was vortexed at room temperature for 2 min and they are centrifuged at 5000 rpm for 5 min to ensure complete separation of layers. Further, 100 μL of each phase was transferred into a separate pre-weighed vial and measured in the well γ-counter. The ratio of octanol layer counts to aqueous layer counts was expressed as the distribution coefficient (D, the appropriate descriptor for ionizable compounds) and logD was used for determination of lipophilicity. Counts per unit weight of the sample were calculated, and logD value as calculated as follows:
log10D = log10 [(cpm in octanol – cpm in background) / (cpm in buffer – cpm in background)]

[3] = in vitro; format: in vitro ADME; conditions: rat
Protocol: An aliquot (100 μL) of ^99mTc-BN1/^99mTc-BN2/^99mTc-BN3/^99mTc-BN4/^99mTc-BNS was added to 1 mL of freshly collected rat serum in centrifuge tube. The mixture was then incubated at 37 °C for 1 h; the serum protein was precipitated by adding 1 mL trichloroacetic acid (10%, V/V). The supernatant and precipitate were separated by centrifugation at 3000 rpm for 5 min. Radioactivities of both the phases were measured separately. The above experimental procedure was repeated three times. The percentage of protein binding was determined as: Plasma protein binding % = (precipitate counts (CPM) / [precipitate counts (CPM) + plasma counts (CPM)]) × 100%.

[4] = 60 min p.i., blocked with excess non-radiolabeled BN peptide

## ^99mTc-HYNIC-Asp-[Phe^13Nle^14]BN(7-14)NH2 [99mTc-BN1]
[1]; 5 min p.i., i.v.
  Tumor uptake: 0.78 ± 0.03 %IA/g
  Blood uptake: 1.32 ± 0.07 %IA/g
  Heart uptake: 1.02 ± 0.05 %IA/g
  Intestine uptake: 1.06 ± 0.05 %IA/g
  Kidney uptake: 2.12 ± 0.10 %IA/g
  Liver uptake: 0.85 ± 0.04 %IA/g
  Lung uptake: 0.95 ± 0.04 %IA/g
  Muscle uptake: 0.22 ± 0.02 %IA/g
  Pancreas uptake: 2.58 ± 0.12 %IA/g
  Spleen uptake: 0.94 ± 0.04 %IA/g
  Stomach uptake: 0.42 ± 0.02 %IA/g
  Urine + urinary bladder uptake: 0.81 ± 0.04 %IA/g
[1]; 30 min p.i., i.v.
  Tumor uptake: 2.51 ± 0.12 %IA/g
  Blood uptake: 0.89 ± 0.04 %IA/g
  Heart uptake: 0.81 ± 0.04 %IA/g
  Intestine uptake: 1.36 ± 0.06 %IA/g
  Kidney uptake: 4.12 ± 0.20 %IA/g
  Liver uptake: 0.69 ± 0.03 %IA/g
  Lung uptake: 0.77 ± 0.03 %IA/g
  Muscle uptake: 0.27 ± 0.01 %IA/g
  Pancreas uptake: 1.79 ± 0.08 %IA/g
  Spleen uptake: 0.51 ± 0.02 %IA/g
  Stomach uptake: 0.85 ± 0.04 %IA/g
  Urine + urinary bladder uptake: 2.85 ± 0.01 %IA/g
[1]; [4]
  Tumor uptake: 1.20 ± 0.03 %IA/g
  Blood uptake: 0.34 ± 0.01 %IA/g
  Heart uptake: 0.44 ± 0.01 %IA/g
  Intestine uptake: 1.44 ± 0.05 %IA/g
  Kidney uptake: 3.10 ± 0.02 %IA/g
  Liver uptake: 0.55 ± 0.03 %IA/g
  Lung uptake: 0.57 ± 0.02 %IA/g
  Muscle uptake: 0.16 ± 0.02 %IA/g
  Pancreas uptake: 0.91 ± 0.04 %IA/g
  Spleen uptake: 0.35 ± 0.01 %IA/g
  Stomach uptake: 0.40 ± 0.02 %IA/g
  Urine + urinary bladder uptake: 3.56 ± 0.02 %IA/g
[1]; 60 min p.i., i.v.
  Tumor uptake: 1.85 ± 0.09 %IA/g
  Blood uptake: 0.32 ± 0.01 %IA/g
  Heart uptake: 0.47 ± 0.02 %IA/g
  Intestine uptake: 1.70 ± 0.08 %IA/g
  Kidney uptake: 3.15 ± 0.15 %IA/g
  Liver uptake: 0.56 ± 0.02 %IA/g
  Lung uptake: 0.56 ± 0.02 %IA/g
  Muscle uptake: 0.14 ± 0.01 %IA/g
  Pancreas uptake: 1.11 ± 0.05 %IA/g
  Spleen uptake: 0.32 ± 0.01 %IA/g
  Stomach uptake: 0.56 ± 0.02 %IA/g
  Urine + urinary bladder uptake: 3.50 ± 0.15 %IA/g
[1]; 120 min p.i., i.v.
  Tumor uptake: 1.56 ± 0.07 %IA/g
  Blood uptake: 0.05 ± 0.01 %IA/g
  Heart uptake: 0.17 ± 0.01 %IA/g
  Intestine uptake: 1.10 ± 0.05 %IA/g
  Kidney uptake: 1.56 ± 0.07 %IA/g
  Liver uptake: 0.32 ± 0.01 %IA/g
  Lung uptake: 0.32 ± 0.01 %IA/g
  Muscle uptake: 0.09 ± 0.02 %IA/g
  Pancreas uptake: 0.69 ± 0.03 %IA/g
  Spleen uptake: 0.26 ± 0.03 %IA/g
  Stomach uptake: 0.35 ± 0.01 %IA/g
  Urine + urinary bladder uptake: 4.79 ± 0.12 %IA/g
[2]
  logD: − 1.85 ± 0.05
[3]
  Percentage of plasma protein binding: 45.00%
